These results are taken from US20090068224A1, “METHOD TO IDENTIFY POLYPEPTIDE TOLL-LIKE RECEPTOR (TLR) LIGANDS” (VAXINNATE CORPORATION, priority 2005, published 2009).

Sequence of human TLR2 (293.hTLR2 cells) (O60603 21-784): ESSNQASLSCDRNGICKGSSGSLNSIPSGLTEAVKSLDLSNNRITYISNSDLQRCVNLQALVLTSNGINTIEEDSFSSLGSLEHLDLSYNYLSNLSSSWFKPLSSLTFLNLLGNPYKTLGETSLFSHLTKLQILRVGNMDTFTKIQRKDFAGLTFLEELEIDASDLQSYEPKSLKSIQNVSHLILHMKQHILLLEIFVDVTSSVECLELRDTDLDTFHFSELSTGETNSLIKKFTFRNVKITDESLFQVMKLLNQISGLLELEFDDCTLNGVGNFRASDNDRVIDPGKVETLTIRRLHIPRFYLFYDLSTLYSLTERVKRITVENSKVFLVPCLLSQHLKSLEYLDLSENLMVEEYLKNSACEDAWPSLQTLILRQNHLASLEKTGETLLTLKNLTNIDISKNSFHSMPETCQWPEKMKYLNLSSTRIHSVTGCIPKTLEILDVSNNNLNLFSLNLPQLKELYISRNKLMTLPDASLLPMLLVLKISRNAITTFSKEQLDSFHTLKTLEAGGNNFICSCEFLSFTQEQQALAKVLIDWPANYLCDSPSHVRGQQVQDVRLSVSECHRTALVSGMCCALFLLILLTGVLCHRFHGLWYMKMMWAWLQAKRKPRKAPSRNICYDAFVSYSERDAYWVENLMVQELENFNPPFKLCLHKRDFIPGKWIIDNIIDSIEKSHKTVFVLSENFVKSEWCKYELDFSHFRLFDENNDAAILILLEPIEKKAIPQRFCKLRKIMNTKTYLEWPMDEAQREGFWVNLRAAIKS
Sequence of TLR2 (O60603 21-784 limits assumed): as the sequence (O60603 21-784) above

The first assay has as its target TLR2 (Homo sapiens, UniProt O60603). Description: T7 phage biopanning, 4 rounds (negative on parental HEK293, positive on 293.hTLR2 cells); share of 109 sequenced clones.
Conditions: not given
Turning to IYKLA (peptide), the % ABUNDANCE was determined as 0.9%.
With VSEGV (peptide), the % ABUNDANCE is 3.67%.
As to LRQGR (peptide), the % ABUNDANCE was determined as 0.9%.
For the substance EVCAP (peptide), the % ABUNDANCE was 0.92%.
As to MISS (peptide), the % ABUNDANCE was 0.92%.
Consider NRTVF (peptide), for which the % ABUNDANCE stood at 0.92%.
In the case of IMRHP (peptide), the % ABUNDANCE came to 0.92%.
On the same count and under the same terms, for KGWF (peptide) the value was 0.9%; for GPLLH (peptide), 0.9%; for PESGV (peptide), 0.92%.
As to CVWLQ (peptide), the % ABUNDANCE is 0.9%.
Consider GGKLS (peptide), for which the % ABUNDANCE came to 0.92%.
On to THKPK (peptide), for which the % ABUNDANCE worked out at 0.9%.
For the substance NYRRW (peptide), the % ABUNDANCE came out at 0.9%.
The same measure, in the same setting: for SGGLF (peptide) the value was 0.92%; for SRHGR (peptide), 0.92%; for IGRFR (peptide), 2.7%.
Regarding AVRLS (peptide), the % ABUNDANCE stood at 0.92%.
For the substance NPPTT (peptide), the % ABUNDANCE turned out to be 0.92%.
Turning to AGCFS (peptide), the % ABUNDANCE amounted to 0.92%.
In the case of MFGVP (peptide), the % ABUNDANCE was determined as 0.9%.
On to RVVAP (peptide), for which the % ABUNDANCE was 0.9%.
Same read-out and setting: for ACGVY (peptide) the value was 0.92%.
Consider MRRIL (peptide), for which the % ABUNDANCE was determined as 0.92%.
The same measure, in the same setting: for RGGSK (peptide) the value was 3.67%; for AWAGT (peptide), 0.9%; for IMWFP (peptide), 0.9%.
Consider FCGLG (peptide), for which the % ABUNDANCE came out at 0.92%.
For KYMPH (peptide), the % ABUNDANCE was 0.9%.
With KCQSF (peptide), the % ABUNDANCE amounted to 0.92%.
With IHVVP (peptide), the % ABUNDANCE came to 0.9%.
As to NRFGL (peptide), the % ABUNDANCE came out at 0.92%.
Take HLLPG (peptide): the % ABUNDANCE came out at 0.9%.
Take ADTHQ (peptide): the % ABUNDANCE stood at 0.9%.
With SHIAL (peptide), the % ABUNDANCE amounted to 0.9%.
On the same count and under the same terms, for MGTLP (peptide) the value was 1.8%; for RGGF (peptide), 0.92%; for CGPKL (peptide), 0.92%.
Take VGKND (peptide): the % ABUNDANCE amounted to 0.9%.

The target in another assay is human TLR2 (293.hTLR2 cells) (Homo sapiens, UniProt O60603). As to the kind of experiment: Biopanning of pentameric random peptide phage display library, sequencing of enriched clones. The class given is binding. Conditions: percentage of all clones sequenced (n = 109) having given peptide sequence; after 4 rounds of biopanning, TLRlo parental HEK293, TLRhi 293.hTLR2; peptides with identity to known microbial proteins. The procedure:
Screening of phage display libraries by biopanning: Phage display libraries are screened for peptide TLR ligands according to the following procedure. The phage display library is incubated on an in vitro cultured monolayer of cells that express minimal amounts of the TLR of interest (TLR^lo) in order to reduce non-specific binding, and then transferred to an in vitro suspension culture of cells expressing the relevant TLR (TLR^hi) to capture phage with binding specificity for the target TLR. After several washes with PBS to remove phage remaining unbound to the TLR^hi cells, TLR^hi cell-bound phages are harvested by centrifugation. The TLR^hi cells with bound phage are incubated with E. coli (strain BLT5615) in order to amplify the phage. This process is repeated three or more times to yield a phage population enriched for high affinity binding to the target TLR.
In each round of biopanning, the harvested phage that are bound to TLR^hi cells can be titred prior to amplification, amplified, and then titred again prior to initiation of the next cycle of biopanning. In this way, it is possible to determine the percent (%) of input phage in each cycle that are ultimately harvested from the TLR^hi cells. This calculation provides a round-by-round measure of enrichment within the phage display library for phage that display TLR-binding peptides.
Construction of random peptide libraries (RPL): A pentameric random peptide phage display library of T7SELECT phage was constructed essentially as described in Example 2. A pair of phosphorylated oligonucleotides with the sequence NNBNNBNNBNNBNNB (where N=A/G/C/T, B=G/C/T) flanked at the 5′ and 3′ ends by EcoRI and HindIII sites, respectively, was synthesized. Equimolar amounts of the oligonucleotides were annealed by heating for 5 min at 90° C. with gradual cooling to 25° C. The double stranded DNA was ligated to T7Select 10-3 bacteriophage vector (Novagen) that had been previously digested with EcoRI and HindIII. The ligation reactions were packaged in vitro and titred using the host E. coli strain […] that was grown in M9TB (Novagen), generating 2.5×10^7 clones, representing about 75% coverage of the library. The recombinant phage were subjected to several rounds of amplification to generate a total library of 1.35×10^12 phage, ensuring representation in excess of 5×10^4 fold for each clone in the library.
Sequencing of phage inserts: Individual phage clones from the enriched pool are isolated via plaque formation in E. coli. The DNA inserts of individual phage are amplified in PCR using the commercially available primers T7SelectUP (5′-GGAGCTGTCGTATTCCAGTC-3′; SEQ ID NO: 37; Novagen, catalog #70005) and T7SelectDOWN (5′-AACCCCTCAAGACCCGTTTA-3′; SEQ ID NO: 38; Novagen, catalog #70006). The PCR product DNA is purified using the QIAquick 96 PCR Purification Kit (Qiagen) and subjected to DNA sequencing using T7SelectUP and T7SelectDOWN primers.
We constructed a pentameric random peptide phage display library in T7 phage. This phage library was then screened by biopanning as described in Example 3. For this screen, the TLR^lo cells were parental HEK293 (TLR2^−) cells, and the TLR^hi cells were HEK293 cells ectopically expressing human TLR2 (293.hTLR2, see Example 1, above). Phage bound to 293.hTLR2 cells were harvested, titred, and amplified prior to initiation of the each cycle of panning. In this way, it was possible to determine the % of input phage in each cycle that was ultimately harvested from the TLR2^hi cells.
After 4 rounds of biopanning, individual phage clones from the enriched pool were isolated via plaque formation in E. coli. […] phage clones were randomly picked for sequencing. Of the 109 individual clones examined the motif DPDSG was predominant (see Tables 6 and 7). […]
As for “SHIAL [peptide TLR2 ligand from phage display]”, the “% Abundance” value turned out to be 0.9%.
Consider “IMWFP [peptide TLR2 ligand from phage display]”, for which the “% Abundance” value is recorded as 0.9%.
Regarding “HLLPG [peptide TLR2 ligand from phage display]”, the “% Abundance” value was 0.9%.
In the case of “MFGVP [peptide TLR2 ligand from phage display]”, the “% Abundance” value was found to be 0.9%.
In the case of “KGWF [peptide TLR2 ligand from phage display]”, the “% Abundance” value was 0.9%.
For the substance “THKPK [peptide TLR2 ligand from phage display]”, the “% Abundance” value amounted to 0.9%.
Same read-out and setting: under “AWAGT [peptide TLR2 ligand from phage display]” stands 0.9%; under “IHVVP [peptide TLR2 ligand from phage display]”, 0.9%; under “KYMPH [peptide TLR2 ligand from phage display]”, 0.9%.
Regarding “ADTHQ [peptide TLR2 ligand from phage display]”, the “% Abundance” value was 0.9%.
The same measure, in the same setting: for “LRQGR [peptide TLR2 ligand from phage display]” the value was 0.9%.
For “GPLLH [peptide TLR2 ligand from phage display]”, the “% Abundance” value came out at 0.9%.
With “IYKLA [peptide TLR2 ligand from phage display]”, the “% Abundance” value was 0.9%.
Take “VGKND [peptide TLR2 ligand from phage display]”: the “% Abundance” value came to 0.9%.
As to “IGRFR [peptide TLR2 ligand from phage display]”, the “% Abundance” value stood at 2.7%.
Regarding “RVVAP [peptide TLR2 ligand from phage display]”, the “% Abundance” value came to 0.9%.
The same measure, in the same setting: for “NYRRW [peptide TLR2 ligand from phage display]” the value was 0.9%; for “MGTLP [peptide TLR2 ligand from phage display]”, 1.8%.
Regarding “CVWLQ [peptide TLR2 ligand from phage display]”, the “% Abundance” value is reported as 0.9%.

The assay is the same for the next values; noted with them: percentage of all clones sequenced (n = 109) having given peptide sequence; after 4 rounds of biopanning, TLRlo parental HEK293, TLRhi 293.hTLR2; peptides with no homology to known proteins.
Take “RGGF [peptide TLR2 ligand from phage display]”: the “% Abundance” value was 0.92%.
For “FCGLG [peptide TLR2 ligand from phage display]”, the “% Abundance” value is recorded as 0.92%.
As for “AGCFS [peptide TLR2 ligand from phage display]”, the “% Abundance” value came to 0.92%.
Still for that read-out and setting: for “MRRIL [peptide TLR2 ligand from phage display]” the value was 0.92%; for “VSEGV [peptide TLR2 ligand from phage display]”, 3.67%.
Regarding “ACGVY [peptide TLR2 ligand from phage display]”, the “% Abundance” value was 0.92%.
“GGKLS [peptide TLR2 ligand from phage display]”: the “% Abundance” value amounted to 0.92%.
Same read-out and setting: for “IMRHP [peptide TLR2 ligand from phage display]” the value was 0.92%; for “NRFGL [peptide TLR2 ligand from phage display]”, 0.92%; for “AVRLS [peptide TLR2 ligand from phage display]”, 0.92%.
For the substance “NRTVF [peptide TLR2 ligand from phage display]”, the “% Abundance” value is recorded as 0.92%.
In the case of “PESGV [peptide TLR2 ligand from phage display]”, the “% Abundance” value is 0.92%.
Regarding “RGGSK [peptide TLR2 ligand from phage display]”, the “% Abundance” value came to 3.67%.
On to “NPPTT [peptide TLR2 ligand from phage display]”, for which the “% Abundance” value stood at 0.92%.
“EVCAP [peptide TLR2 ligand from phage display]”: the “% Abundance” value came out at 0.92%.
Same read-out and setting: for “SRHGR [peptide TLR2 ligand from phage display]” the value was 0.92%.
With “SGGLF [peptide TLR2 ligand from phage display]”, the “% Abundance” value is 0.92%.
“MISS [peptide TLR2 ligand from phage display]”: the “% Abundance” value was determined as 0.92%.
“CGPKL [peptide TLR2 ligand from phage display]”: the “% Abundance” value turned out to be 0.92%.
For “KCQSF [peptide TLR2 ligand from phage display]”, the “% Abundance” value worked out at 0.92%.
